Measured values taken from the supplement of paper PMC10126150.
± gives the standard deviation of the averaged measurements.

Tested on: ATP
Experiment: switch fluorescence ratio, 500 uM ATP over buffer (Cy3 cluster intensity, sum of 5 cycles each) (fold (ratio)); higher = stronger signal-on switching upon ATP binding; sequences stand for … in TCGTCGGCAGCGTCAGATGTGTATAAGAGACAGTTTTTTTTTTTTTTTTTTTTTTTTT…TC
Settings: aptamer strand: ATP DNA aptamer (quencher-CACCTGGGGGAGTATTGCGGAGGAAGG + anchor), 100 nM annealed; ATP concentration: 500 uM
Outline: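 Values give the fluorescence ratio for each switch-domain sequence, averaged from per-cluster ratios of summed target-cycle to summed buffer-cycle Cy3 intensity. The Cy3-labelled switching-strand clusters sat on a modified Illumina MiSeq flow-cell, were annealed to 100 nM quencher-labelled ATP aptamer, and were imaged in selection buffer, then after 15 min with 500 uM ATP at 22 °C. Five cycles ran with NaOH stripping and re-annealing between them, and clusters outside 100-1000 RFU were excluded.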
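Also: ATP exposure 15 min at 22 °C before imaging.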

Sequence | switch fluorescence ratio
GGATTGAGTT | 0.999 ± 0.035
TAGGTCGGGA | 0.976 ± 0.02
AGTAAAATT | 0.9865 ± 0.0036
ATTTTTTAGT | 0.983 ± 0.013
AACTAGAGTT | 0.99 ± 0.014
ATAGCCCGGG | 0.986 ± 0.011
TATTCACATT | 0.994 ± 0.024
TGTTGAAAAG | 0.979 ± 0.01
GTTGGTGCGG | 0.999 ± 0.034
GGGTACAGCT | 1.014 ± 0.0047
TAGAGGTAGG | 0.979 ± 0.018
CGTTGTATAG | 0.971 ± 0.016
GCTGCACGGG | 1.01 ± 0.03
TACGTGCTCC | 1.144 ± 0.0012
GTACGAGGGG | 0.992 ± 0.016
AATATTTTGG | 1.013 ± 0.0037
GCTTTATAGT | 0.985 ± 0.049
CGGCATTAAA | 0.995 ± 0.0058
GAGGGGACGG | 0.996 ± 0.015
GGTCGTTTGC | 1.05 ± 0.074
AAGATGTTGG | 1.01 ± 0.04
CATGTTTGCT | 0.961 ± 0.02
TGAATAATCT | 1.055 ± 0.004

Sequence | switch fluorescence ratio
TGCCGGGTTC | 0.979 ± 0.03
CGCTTTGGCG | 0.959 ± 0.061
TGCGTAAAAT | 1.008 ± 0.0028
TTGCTATCTT | 0.983 ± 0.052
TTCAATGGTT | 1.02 ± 0.035
GCCAGTGCTG | 1.017 ± 0.0069
AAAGGGTGTG | 1 ± 0.019
TAAAGTGGCG | 1.05 ± 0.039
TCATGGTGGG | 1 ± 0.025
CGACTTTTAG | 0.959 ± 0.021
GAGCATATCA | 1.006 ± 0.0028
TTATATATAA | 1.01 ± 0.027
AACTGGACTT | 1.11 ± 0.042
TGGGTTCGCG | 0.988 ± 0.021
TATAGTATTG | 0.9861 ± 0.0087
ACGTTTAACT | 1.25 ± 0.015
CTGAGCTGTG | 0.968 ± 0.035
AGGGGCAACT | 1 ± 0.048
CCGTTTGGTT | 0.995 ± 0.064
GGTATCACGG | 0.9912 ± 0.0045
TGTTTGTAAA | 1.01 ± 0.029
GGGGTGGCCT | 1 ± 0.027
ATTTTGCGTT | 0.998 ± 0.031

Sequence | switch fluorescence ratio
TTGCTTGAGC | 1.006 ± 0.0092
TTTGGGCTGT | 1.02 ± 0.021
TAATCAGAGG | 0.994 ± 0.019
GCACAAGATG | 1.0073 ± 0.00098
ATCTAGGGGA | 0.9995 ± 0.0066
AAGGGGTAGG | 0.986 ± 0.036
CAAAATAAGA | 1.01 ± 0.017
GGGGGGGATT | 1.01 ± 0.025
ACAGGATTGG | 1.01 ± 0.017
GCCATAGGAG | 0.987 ± 0.031
GTCGTGTGGG | 0.996 ± 0.0025
TCGTTGAGCA | 0.994 ± 0.018
TCGCGGTTAT | 1.06 ± 0.029
TAAGAAAACT | 1.36 ± 0.22
CACTGTCGAT | 1.016 ± 0.0097
TTAGGAAGAT | 1.36 ± 0.59
TGGTTGTGAG | 1 ± 0.0065
GGGTTGGGCC | 0.989 ± 0.014
GATGGGTCTA | 0.966 ± 0.029
AGGCTTTCCT | 1.05 ± 0.04
AAGGGGGCTA | 0.974 ± 0.027
GTTATATCGC | 0.985 ± 0.03
TGTAAATAAG | 0.991 ± 0.043

Sequence | switch fluorescence ratio
TCAAGCTTTT | 1.01 ± 0.017
TTCGTGGGGC | 1.18 ± 0.21
CGGGGGGAAA | 1 ± 0.02
AAGGCAGGCG | 0.977 ± 0.096
AGGGAGAGAG | 0.997 ± 0.022
TAAGCTTGGC | 1.02 ± 0.026
CGTTTTGCAG | 1.03 ± 0.032
CCATTAGGGG | 1.01 ± 0.044
TGTGATTTAT | 1.0046 ± 0.00072
GGTTATTGGT | 1.02 ± 0.021
GCATTTTGAA | 1.02 ± 0.026
CACACGTACA | 1.769 ± 0.01
GTTCAAATGA | 0.987 ± 0.017
ATGACTTGTA | 0.987 ± 0.015
GCTTTATTTA | 0.992 ± 0.053
CAGAGCCAAC | 1.11 ± 0.016
CAGGGGAAAG | 1.01 ± 0.033
TTGATATAAT | 0.981 ± 0.014
ACAGGGCCGT | 1.03 ± 0.033
ACTGATGATC | 1.016 ± 0.0039
TTCCATGTTT | 1.06 ± 0.11
TGATCAGGGA | 1.02 ± 0.021
TTTTTGTCGG | 0.996 ± 0.026

Sequence | switch fluorescence ratio
ATGGGCGTGG | 1 ± 0.06
TATTGCTGCT | 0.983 ± 0.032
TTGTCGGGCC | 0.964 ± 0.039
TTTTGGTTG | 0.947 ± 0.045
GTTGTATCGG | 0.991 ± 0.021
CGGCTTACGT | 0.993 ± 0.016
CGTCCTGGCT | 1.02 ± 0.07
AAAGGGCATC | 1.01 ± 0.058
GTGTTGTTGC | 0.981 ± 0.0012
GGTGTTAGAC | 0.976 ± 0.029
TTGACCGGGA | 1.14 ± 0.27
ACTTCTCTTA | 1.01 ± 0.013
ATTCGATTTT | 0.999 ± 0.019
TTTTAACTGG | 0.988 ± 0.034
TATGTCACAA | 1.03 ± 0.014
GATATAGGGT | 0.983 ± 0.018
GGGAGAATGC | 0.939 ± 0.097
TAGCCGGCCT | 1.05 ± 0.025
AGGAATGTTT | 0.985 ± 0.0099
TCATCGCTTT | 1.08 ± 0.021
TCGGCTGTAT | 1.69 ± 0.94
ACGATTGTGG | 0.983 ± 0.014
GAGCCAGGGA | 1.001 ± 0.0029

Sequence | switch fluorescence ratio
ATTAGGAATG | 1.01 ± 0.027
AAATGTTTTT | 0.999 ± 0.028
AGGGAAGTTA | 1.01 ± 0.014
GATAGAAAGA | 0.964 ± 0.025
TCGAGCAGTG | 1.06 ± 0.013
GCGGGTCAGC | 1.01 ± 0.012
TAGTTTAATT | 0.998 ± 0.015
GGGTCCGGCG | 0.995 ± 0.034
TGGTGGAGAT | 1.01 ± 0.028
TCATTTTGG | 0.992 ± 0.015
TAGGTAAGGG | 0.99 ± 0.026
GTTATTTGGT | 0.992 ± 0.04
GGGGACTGGT | 1 ± 0.043
AGAAGCTATT | 0.9724 ± 0.0017
CGGGGTCTGA | 0.953 ± 0.028
GACCTCAGGT | 1.08 ± 0.11
TGGTTTAACG | 0.99243 ± 0.00051
TGACTGTTTC | 1.01 ± 0.024
TTTATGTTTT | 0.965 ± 0.041
AAATTTACCG | 1.05 ± 0.015
GTTATTCGGT | 0.991 ± 0.023
TGGGATTGGG | 0.974 ± 0.013
GTTTATCATT | 0.982 ± 0.011

Sequence | switch fluorescence ratio
GGTATCCGTG | 1.019 ± 0.0085
CAAAGGGCGG | 0.9985 ± 0.0012
GGTGGTTTTT | 1.03 ± 0.099
TTTACTTAGT | 1.02 ± 0.018
TTAAGGCGCT | 0.976 ± 0.019
TGGCAGTCTA | 0.979 ± 0.018
GAGGGGAAGG | 0.958 ± 0.057
TTTTTACAAG | 1.21 ± 0.3
ATTTAGTACT | 1.04 ± 0.021
AGGGGTAACT | 0.996 ± 0.031
TAAAGGTCAT | 0.9959 ± 0.0018
TTTAAGTTTC | 1 ± 0.025
ATAATCCCGA | 1.02 ± 0.015
TGTTTAACAT | 0.981 ± 0.035
CCATTCTCTC | 0.974 ± 0.082
CCATTATTTT | 1 ± 0.03
GCAGGGTTTC | 0.997 ± 0.024
GAGTCAATAG | 2.98 ± 0.047
TTGACAATGG | 0.99 ± 0.012
